# Legend:
# scOX40L-Fc (mouse) = scOX40L-Fc (mouse) (UniProt P43488); experiment: non-reducing SDS-PAGE and immunoblot; recombinant OX40L proteins in Laemmli sample buffer, non-heated/non-reducing, SDS-PAGE, immunoblot with anti-PA tag antibody; oligomers judged by molecular weight
# Fc-scOX40L (mouse) = Fc-scOX40L (mouse) (UniProt P43488); experiment: as above
Substance,stoichiometry N (scOX40L-Fc (mouse)),stoichiometry N (Fc-scOX40L (mouse))
scOX40L-Fc (from UniProt P43488 51-198; P43488 51-198; P43488 51-198) (Fc fusion),2,
Fc-scOX40L (from UniProt P43488 51-198; P43488 51-198; P43488 51-198) (Fc fusion),,2

# — publication PMC11757143, “Generation and characterization of OX40-ligand fusion protein that agonizes OX40 on T-Lymphocytes” (Frontiers in Immunology, 2025)
